# From US20250320282A1 (MABYLON, published 2025)
# Positions count from the first letter of the chain named.
# T1: Ara h 6 (Arachis hypogaea allergen 6) (Arachis hypogaea, UniProt Q647G9 22-145)
# T1 construct: Peanut allergen; also called Ara h 6.0101; nAra h 6
# T1 sequence: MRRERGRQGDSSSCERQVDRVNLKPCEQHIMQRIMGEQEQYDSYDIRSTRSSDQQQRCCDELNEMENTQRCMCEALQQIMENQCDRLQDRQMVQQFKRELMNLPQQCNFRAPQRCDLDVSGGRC
# T2: Ara h 2 (Arachis hypogaea allergen 2) (Arachis hypogaea, UniProt Q6PSU2 22-172)
# T2 construct: Peanut allergen; also called nAra h 2; natural Ara h 2
# T2 sequence: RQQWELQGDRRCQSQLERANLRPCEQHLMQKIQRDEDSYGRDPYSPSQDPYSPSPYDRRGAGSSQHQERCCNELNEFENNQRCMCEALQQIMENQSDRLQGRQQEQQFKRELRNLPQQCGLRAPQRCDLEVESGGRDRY
# T3: Ara h 3 (Arachis hypogaea allergen 3) (Arachis hypogaea)
# T3 construct: Peanut allergen; also called Ara h 3.0101; nAra h 3
# T3 chain: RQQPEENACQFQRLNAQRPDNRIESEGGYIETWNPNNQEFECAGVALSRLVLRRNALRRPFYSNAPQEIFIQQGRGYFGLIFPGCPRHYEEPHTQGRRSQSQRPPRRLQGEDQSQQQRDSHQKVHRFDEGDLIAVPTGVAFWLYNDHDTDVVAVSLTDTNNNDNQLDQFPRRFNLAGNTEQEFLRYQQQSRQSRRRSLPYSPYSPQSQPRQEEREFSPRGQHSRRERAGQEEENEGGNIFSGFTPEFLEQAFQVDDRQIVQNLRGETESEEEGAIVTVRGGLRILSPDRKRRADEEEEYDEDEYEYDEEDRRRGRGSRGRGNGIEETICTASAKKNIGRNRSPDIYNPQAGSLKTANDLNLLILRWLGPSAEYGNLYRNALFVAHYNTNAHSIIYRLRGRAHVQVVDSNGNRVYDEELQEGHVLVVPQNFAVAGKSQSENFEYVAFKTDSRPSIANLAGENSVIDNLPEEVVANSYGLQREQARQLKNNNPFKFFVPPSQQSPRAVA
# B1: 2F8 (antibody, V domains shown)
# VH: EVQLVESGGGLVKPGGSLRLSCAASGFIFSDYNMNWVRQAPGKGLEWVSSITRSSRTIYYADSVKGRFTISRDNAKNSLHLQMNSLRDADTAVYYCAREDFDVSTGPYYMDVWGNGTTVIVSS
# VL: EIVLTQSPGTLSLSPGERATLSCRASQSVSNMFLVWYQQKPGQAPRLLMYGASTRATDIPDRFSGSGSGTDFTLTISRLEPEDFAVYYCQQNGNSPYTFGQGTKLEIK
# notes: Fully human monoclonal antibody, wild-type variable regions; tested as IgG; also called MY006-2F8
# B2: 7G6 (antibody, V domains shown)
# VH: QVQLVESGGGVVQPGRSLRLSCAASGIAFNDYTMHWVRRSPDKGLEWVAAISYGGTNKYYADSVKGRFTISRDSSKNTLFLQMDSLRVEDTAVYYCARDSGYRSLLHWGQGTLVTVSS
# VL: EIVLTQSPLSLPVTPGEPASISCRSSQSLVHRNGYNYLDWYLQKPGQSPQLLIYMASKRASGVPDRFSGSGSGTEFTLKISRVEAEDVGIYYCMQALQTWTFGQGTKVEVN
# notes: Fully human monoclonal antibody, wild-type variable regions; tested as IgG; also called MY006-7G6
# B3: MY006-7G6 Fab Hg Lf (Fab, V domains shown)
# VH: B2 VH with S40A, D42G, F80Y, D84N, V88A
# VL: B2 VL with E1D, L4M, E75D, I90V, V110I, N111K
# notes: Germlined variant, IgG1-Fab format
# B4: MY006-7G6 Fab Lf (Fab, V domains shown)
# VH: B2 VH
# VL: B2 VL with E1D, L4M, E75D, I90V, V110I, N111K
# notes: Germlined variant, IgG1-Fab format; also called 7G6 Lf
# B5: MY006-7G6 Fab Lg (Fab, V domains shown)
# VH: B2 VH
# VL: B2 VL with E75D, I90V, V110I, N111K
# notes: Germlined variant, IgG1-Fab format; also called 7G6 Lg
# B6: 17H9 (antibody, V domains shown)
# VH: QVQLEEYGGGVVQPGRSLRLSCVASGSTLGTYGMHWVRQAPGKGLEWVAIISPDGGHQDYADPVRGRFTVSRDNSKNTLYLQMDNLRVEDTAVYYCATTLCARTDCTWVRSDSWGQGTLVTVSS
# VL: ANVLTQSPGTLSLSPGERATLSCRASQRVSGDYLAWYQQKRGQAPRLLIYGASSRATGIPDRFSGSGSGTDFTLTISRLEPEDFAVYYCQHYNGPPVTFGQGTKLEIK
# notes: Fully human monoclonal antibody, wild-type variable regions; tested as IgG (detected with anti-human IgG); also called MY006-17H9
# B7: 7G6_rb_IGHV1S47_J3+IGKV1S19_JK1-2 (antibody, V domains shown)
# VH: QEQLVESGGGLVQPEGSLTLTCKASGFDFSDYTMHWVRQAPGKGPEWIAAISYGGTNKYYADSVKGRFTISRSTSLNTVTLQMTSLTAVDTATYFCARDSGYRSLLHWGQGTLVTVSS
# VL: AAVLTQTPSPVSAAVGGTVTIKCRSSQSLVHRNGYNYLDWYQQKPGQPPKLLIYMASKRASGVPDRFSGSGSGTQFTLTISGVQCDDAATYYCMQALQTWTFGGGTKVVVK
# B8: 7G6_rb_IGHV1S47_J3+IGKV1S19_JK1-3 (antibody, V domains shown)
# VH: B7 VH
# VL: B7 VL with F102L, G104P, V108L, V109E, V110I
# B9: 7G6_rb_IGHV1S47_J3+K66N_IGKV1S19_JK1-2 (antibody, V domains shown)
# VH: B7 VH
# VL: B7 VL with K58N
# notes: Fully rabbit antibody: 7G6 CDRs grafted onto rabbit variable frameworks
# B10: MY006-15E3 Fab Hg Lg (Fab, V domains shown)
# VH: EVQLVESGGGLVQPGGSLRLSCAASGFKFSTFYMTWIRQAPGKGLEWVANIKQDGSEKDYLDSVRGRFTISRDNAKSSLYLQMNSLRAEDTAVYYCTRNGLQDSYSGDFFDHWGQGTLVTVSS
# VL: QSVLTQPPSVSAAPGQKVTISCSGTGSNIGHNYVSWYQQLPGTAPKLLIFDNTKRPSGIPDRFSGSKSGSSATLGITGLQTGDEADYFCATWDADLSAVLFGGGTKLTVL
# notes: as for B3
# B11: 15E3 (antibody, V domains shown)
# VH: B10 VH with G10A, T69N, S78V, S85T, R87S, E89D, A92G, T117I
# VL: B10 VL with V10I, G42R, K46R, D86H
# notes: Fully human monoclonal antibody, wild-type variable regions; also called MY006-15E3; 15E3-human IgG1
# B12: MY006-15E3 Fab Hf (Fab, V domains shown)
# VH: B10 VH with I37V, S77N
# VL: B10 VL with V10I, G42R, K46R, D86H
# notes: Germlined variant, IgG1-Fab format; also called 15E3 Hf
# B13: MY006-15E3 Fab Hf Lf (Fab, V domains shown)
# VH: B10 VH with I37V, S77N
# VL: B10 VL with F50Y, S70T, F88Y
# notes: as for B3
# B14: MY006-15E3 Fab Hf Lg (Fab, V domains shown)
# VH: B10 VH with I37V, S77N
# VL: B10 VL
# notes: Germlined variant, IgG1-Fab format; also called 15E3: Hf/Lg
# B15: MY006-15E3 Fab Hg (Fab, V domains shown)
# VH: B10 VH
# VL: B10 VL with V10I, G42R, K46R, D86H
# notes: Germlined variant, IgG1-Fab format; also called 15E3 Hg
# B16: MY006-15E3 Fab Hg Lf (Fab, V domains shown)
# VH: B10 VH
# VL: B10 VL with F50Y, S70T, F88Y
# notes: as for B3
# B17: MY006-15E3 Fab Lf (Fab, V domains shown)
# VH: B10 VH with G10A, T69N, S78V, S85T, R87S, E89D, A92G, T117I
# VL: B10 VL with F50Y, S70T, F88Y
# notes: Germlined variant, IgG1-Fab format; also called 15E3 Lf
# B18: MY006-15E3 Fab Lg (Fab, V domains shown)
# VH: B10 VH with G10A, T69N, S78V, S85T, R87S, E89D, A92G, T117I
# VL: B10 VL
# notes: Germlined variant, IgG1-Fab format; also called 15E3 Lg
# B19: 15E3_rb_IGHV1S8_J5+IGLV2S2_JL5 (antibody, V domains shown)
# VH: QKQLVESGGGLDQPAGSLKLSCKDSGFTLSTFYMTWVHQAPGKGLEWIANIKQDGSEKDYLDSVRGRFTISSDNTQNMVDLEMNSLTAADMAIYFCARNGLQDSYSGDFFDHWGQGTLVTVSS
# VL: QPALTQPSSVSGALGGSVTITCSGTGSNIGHNYVSWYQQLPGSVPKLLMFDNTKRPSGIPERFSGSKSGTTASLTISGLQPEDEADYYCATWDADLSAVLFGGGTKLTVL
# B20: MY006-2F8 Fab Lg (Fab, V domains shown)
# VH: B1 VH
# VL: B1 VL with D58G
# notes: Germlined variant, IgG1-Fab format; also called 2F8 Lg
# B21: MY006-2F8 Fab Hg Lf (Fab, V domains shown)
# VH: B1 VH with K13Q, H80Y, A89E, N115K, I120T
# VL: B1 VL with M49I, D58G
# notes: Germlined variant, IgG1-Fab format; also called 2F8: Hg/Lf
# Tests used:
# [1] = molecular target: T1, Ara h 6 (Arachis hypogaea allergen 6); assay: ELISA, antibody titrated on coated Ara h 6
# Description: (§1) Monoclonal antibodies 2F8, 7G6, 17H9 and 15E3 were tested for their specificity against the major peanut allergens Ara h 1, 2, 3, and 6 by ELISA (enzyme linked immunosorbent assay). Briefly, ELISA plates were coated with respective Ara h proteins (Arah1: 0.5 ug/ml, Arah2: 0.01 ug/ml, Arah3: 0.1 ug/ml, Arah6: 0.05 ug/ml) overnight at 4° C. Afterwards, plates were blocked with BSA (2% in PBS) for 1 hour at room temperature. Antibody titration series starting from 3 ug/ml was prepared, added to the single ELISA plate wells and incubated for 2 h at room temperature. The read-out was performed by adding anti-hu-IgG-HRP (anti-human-IgG horseradish peroxidase; Jackson ImmunoResearch, West Grove, PA, USA) for 1 h at room temperature. Tetramethylbenzidine substrate solution (TMB, Sigma-Aldrich Chemie GmbH, Buchs, Switzerland) was added, then after 5 minutes of hydrolysis time, the reaction was stopped by the addition of 1 M H₂SO₄ and the absorbances were read at 450 nm.
# [2] = molecular target: T2, Ara h 2 (Arachis hypogaea allergen 2); assay: ELISA, antibody titrated on coated Ara h 2
# Description: as §1
# [3] = molecular target: T1, Ara h 6 (Arachis hypogaea allergen 6); assay: ELISA, Fab titration on coated Ara h 6
# Description: Next, the effect of the engineered variable regions on antigen binding was tested. Briefly, ELISA plates were coated with respective Ara h proteins (Ara h 2:0.05 ug/ml, Ara h 6:0.1 ug/ml, Ara h 3 loop (2nd): 0.1 ug/ml) overnight at 4° C. Afterwards, plates were blocked with BSA (2% in PBS) for 1 hour at room temperature. Fab fragment titration series starting from 4 ug/ml was prepared, added to the single ELISA plate wells and incubated for 2 h at room temperature. The read-out was performed by adding anti-hu-kappa/lambda-HRP (anti-kappa Invitrogen (A18853) and anti-lambda abcam (ab99811) for 1 h at room temperature. Tetramethylbenzidine substrate solution (TMB, Sigma-Aldrich Chemie GmbH, Buchs, Switzerland) was added, then after 5 minutes of hydrolysis time, the reaction was stopped by the addition of 1 M H₂SO₄ and the absorbances were read at 450 nm.
# [4] = molecular target: T3, Ara h 3 (Arachis hypogaea allergen 3); assay: ELISA, antibody titrated on coated Ara h 3
# Description: as §1
# [5] = molecular target: T1, Ara h 6 (Arachis hypogaea allergen 6); assay: ELISA, purified rabbit antibody
Binder,binding result [3],also measured
B1,,EC50 [1]: 2.46 ng/mL; EC50 [2]: 3.31 ng/mL
B2,,EC50 [1]: 1 ng/mL; EC50 [2]: 0.629 ng/mL
B3,binds,
B4,binds,
B5,binds,
B6,,EC50 [4]: 7.38 ng/mL; EC50 [2]: 2.2 ng/mL
B7,,binding result [5]: binds
B8,,binding result [5]: binds
B9,,binding result [5]: binds
B10,binds,
B11,,EC50 [1]: 1.74 ng/mL; EC50 [2]: 3.78 ng/mL
B12,binds,
B13,binds,
B14,binds,
B15,binds,
B16,binds,
B17,binds,
B18,binds,
B19,,binding result [5]: binds
B20,binds,
B21,binds,
